Results from publication PMC10992996, “Human CRB1 and CRB2 form homo- and heteromeric protein complexes in the retina” (Life Science Alliance, 2024).

Target: T1, CRB1-FLAG p.C1181R (human, UniProt P82279 26-1406, p.C1181R)
T1 construct: Made by site-directed mutagenesis of m1; also called CRB1 p.C1181R; CRB1-FLAG MT; source: HEK293T, transfected, in lysate; not shown: Strep-Strep-FLAG, N-terminal, kept
T1 sequence (looked up): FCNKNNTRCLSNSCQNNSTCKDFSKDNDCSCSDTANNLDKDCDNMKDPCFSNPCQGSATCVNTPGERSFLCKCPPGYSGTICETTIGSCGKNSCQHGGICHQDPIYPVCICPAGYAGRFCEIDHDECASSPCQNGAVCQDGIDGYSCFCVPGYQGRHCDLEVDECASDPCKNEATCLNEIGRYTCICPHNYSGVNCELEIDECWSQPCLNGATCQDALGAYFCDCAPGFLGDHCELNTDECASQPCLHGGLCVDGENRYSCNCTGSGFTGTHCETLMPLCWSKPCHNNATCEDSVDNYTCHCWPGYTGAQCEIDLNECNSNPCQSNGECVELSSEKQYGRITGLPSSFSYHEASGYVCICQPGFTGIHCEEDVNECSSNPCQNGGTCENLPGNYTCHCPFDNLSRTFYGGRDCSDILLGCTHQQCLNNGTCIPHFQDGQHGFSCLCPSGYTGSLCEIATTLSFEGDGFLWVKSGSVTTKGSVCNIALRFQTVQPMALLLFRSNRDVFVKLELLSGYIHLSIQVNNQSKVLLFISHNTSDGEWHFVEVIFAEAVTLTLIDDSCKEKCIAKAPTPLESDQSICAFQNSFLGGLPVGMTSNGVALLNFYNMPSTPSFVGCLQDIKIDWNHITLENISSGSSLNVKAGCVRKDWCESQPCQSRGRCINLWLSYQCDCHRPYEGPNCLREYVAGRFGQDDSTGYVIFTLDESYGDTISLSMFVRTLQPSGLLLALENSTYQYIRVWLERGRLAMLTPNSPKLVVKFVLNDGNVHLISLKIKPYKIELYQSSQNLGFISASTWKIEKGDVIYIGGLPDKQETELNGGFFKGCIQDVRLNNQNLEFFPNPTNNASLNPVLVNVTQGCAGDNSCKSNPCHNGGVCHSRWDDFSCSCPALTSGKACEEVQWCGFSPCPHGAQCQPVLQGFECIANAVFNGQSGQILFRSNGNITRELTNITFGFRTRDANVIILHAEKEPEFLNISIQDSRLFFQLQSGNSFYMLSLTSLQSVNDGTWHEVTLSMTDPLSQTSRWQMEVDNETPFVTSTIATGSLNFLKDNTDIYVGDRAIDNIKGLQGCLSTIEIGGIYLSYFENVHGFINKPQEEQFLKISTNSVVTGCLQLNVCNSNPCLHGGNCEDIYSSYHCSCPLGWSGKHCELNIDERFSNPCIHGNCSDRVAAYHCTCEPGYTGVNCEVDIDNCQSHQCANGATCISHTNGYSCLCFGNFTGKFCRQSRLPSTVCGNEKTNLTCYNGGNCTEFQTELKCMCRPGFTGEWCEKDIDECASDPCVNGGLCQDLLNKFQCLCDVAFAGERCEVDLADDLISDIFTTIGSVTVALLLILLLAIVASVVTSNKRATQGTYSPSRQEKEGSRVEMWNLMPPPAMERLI
Assay: co-IP; HEK293T cells co-transfected pairwise with a FLAG and an HA construct, 48 h; lysis in TBS (30 mM Tris-HCl pH 7.4, 150 mM NaCl) with 0.5% Nonidet P40; FLAG-IP on ANTI-FLAG M2 Affinity Gel 60-90 min at 4°C, elution with FLAG peptide; Western blot with HA and FLAG antibodies; for mutants HA/FLAG signal in eluates relative to WT, three biological replicates
Settings: partners not purified

percent reduction of the interaction relative to CRB1 WT: 19%
B1: Human canonical CRB2 (Crumbs homolog 2) (natural protein)
chain: not shown
notes: Crumbs homolog 2, human, cDNA NM_173689; Stood as bait (FLAG copy) and as prey (HA copy) in the pairwise co-IP matrix; each copy carries only one of the two tags; The FLAG copy was the bait of the mass spectrometry pull-downs; also called CRB2-FLAG; CRB2-HA; source: HEK293T, transfected, in lysate (co-IP); HEK293T, transfected, FLAG-IP on beads, washed and purified with 0.01% SDS (retina …)
